# B1: fusion protein SEQ ID NOs: 90 and 87 (bispecific antibody, human IgG4 S228P, kappa, F234A L235A)
# heavy: not shown
# light: EIVLTQSPDTLSVTPKEKVTLTCRASQSIGTNIHWFQQKPGQSPKLLIKYASESISGVPSRFSGSGSGTDFTLTINSVEAEDAATYYCQQSNSWPYTFGQGTKLEIKRTVAAPSVFIFPPSDEQLKSGTASVVCLLNNFYPREAKVQWKVDNALQSGNSQESVTEQDSKDSTYSLSSTLTLSKADYEKHKVYACEVTHQGLSSPVTKSFNRGEC
# notes: Bivalent to CD137
# B2: fusion protein SEQ ID NOs: 86 and 91 (bispecific antibody, human IgG4 S228P, kappa, F234A L235A)
# heavy: not shown
# light: EIVLTQSPDTLSVTPKEKVTLTCRASQSIGTNIHWFQQKPGQSPKLLIKYASESISGVPSRFSGSGSGTDFTLTINSVEAEDAATYYCQQSNSWPYTFGQGTKLEIKRTVAAPSVFIFPPSDEQLKSGTASVVCLLNNFYPREAKVQWKVDNALQSGNSQESVTEQDSKDSTYSLSSTLTLSKADYEKHKVYACEVTHQGLSSPVTKSFNRGECGGGGSGGGGSGGGGSQDSTSDLIPAPPLSKVPLQQNFQDNQFHGKWYVVGQAGNIRLREDKDPIKMMATIYELKEDKSYDVTMVKFDDKKCMYDIWTFVPGSQPGEFTLGKIKSFPGHTSSLVRVVSTNYNQHAMVFFKFVFQNREEFYITLYGRTKELTSELKENFIRFSKSLGLPENHIVFPVPIDQCIDG
# notes: Antibody-lipocalin mutein fusion, IgG4 S228P backbone; Bivalent to CD137
# Assays:
# [1] = biological target: T1, human PD-L1 expressed on cells (human, UniProt Q9NZQ7 19-290); experiment: flow cytometry, Flp-In-CHO::huPDL-1 cells
# T1 construct: whole, on cells; also called Flp-In-CHO::huPDL-1; RKO cells
# Protocol: The geometric means of the fluorescence intensity were used to calculate EC₅₀ values using nonlinear regression (shared bottom, SLOPE=1).
# 5×10⁴ cells per well were incubated for 1 h in ice-cold PBS containing 5% fetal calf serum (PBS-FCS). A dilution series of the fusion proteins and control antibodies were added to the cells and incubated for 1 h on ice. Cells were washed twice with PBS and then incubated with a goat anti-hIgG Alexa647-labeled antibody for 30 min on ice. Cells were subsequently washed and analyzed using iQue Flow cytometer (Intellicyte Screener). Mean geometric fluorescent signals were plotted and fitted with Graphpad software using nonlinear regression (shared bottom, SLOPE=1).
# [2] = biological target: cyCD137-Fc (cynomolgus CD137 C-terminally fused to Fc) (cynomolgus); experiment: ELISA, cyCD137-Fc coated, detection anti-NGAL-HRP
# Protocol: (§1) Recombinant huPD-L1-His or cyPD-L1-His (human or cynomolgus PD-L1 with a C-terminal polyhistidine tag, R&D Systems or Sino Biologics) at the concentration of 1 μg/mL in PBS was coated overnight on microtiter plates at 4° C. After washing with PBS-0.05% T (PBS supplemented with 0.05% (v/v) Tween 20), the plates were blocked with 2% BSA (w/v) in PBS-0.1% T (PBS supplemented with 0.1% (v/v) Tween 20) for 1 h at room temperature. […] Bound molecules under study were detected by incubation with 1:5000 diluted anti-human IgG Fc-HRP (Jackson Laboratory) in PBS-0.1% T-2% BSA. After an additional wash step, fluorogenic HRP substrate (QuantaBlu, Thermo) was added to each well and the fluorescence intensity was detected using a fluorescence microplate reader.
# The same ELISA setup was also employed to determine the binding potency of fusion proteins to CD137, where huCD137-His (human CD137 with C-terminal polyhistidine tag, R&D Systems) or cyCD137-Fc (cynomolgus CD137 C-terminally fused to Fc) was instead coated on a microtiter plate. The testing agents were similarly titrated and bound agents were detected via anti-NGAL-HRP.
# [3] = biological target: T2, huPD-L1-His (human PD-L1 with a C-terminal polyhistidine tag) (human, UniProt Q9NZQ7 19-239); experiment: ELISA, huPD-L1-His coated, detection anti-human IgG Fc-HRP
# T2 construct: Bought; also called biotinylated huPD-L1-His
# Protocol: as §1
# [4] = biological target: T3, biotinylated huCD137-Fc (human CD137 Fc fusion) (human, UniProt Q07011 24-186, biotinylated); experiment: competitive ELISA, antibody SEQ ID NOs: 28 and 29 coated (competitor), 1 nM huCD137-Fc-bio tracer, binder titrated
# T3 construct: Bought; also called huCD137-Fc-bio
# Protocol: The plates were washed five times after each incubation step with 100 μL PBS-0.05% T (PBS supplemented with 0.05% (v/v) Tween 20). The plates were blocked with 2% BSA (w/v) in PBS-0.1% T (PBS supplemented with 0.1% (v/v) Tween 20) for 1 h at room temperature and subsequently washed again. […] The mixtures of testing molecules and the tracer were added to the plates and incubated for 20 min at room temperature following by five washing steps with 100 μL PBS-0.05% T. Subsequently, a 1:5000 dilution of ExtrAvidin-HRP (Sigma-Aldrich) in PBS-0.1% T-2% BSA was added to the wells and incubated for 1 h. After an additional wash step, fluorogenic HRP substrate (QuantaBlu, Thermo) was added to each well, and the fluorescence intensity was detected using a fluorescence microplate reader.
# Competition data for an exemplary experiment are shown in FIG. 14, where the x-axis represents testing molecule concentration and the y-axis represents the measured trace molecule concentration. The data were fit to a 1:1 sigmoidal curve, where the IC₅₀ value and the maximum signal were free parameters, and the slope was fixed to unity.
# [5] = biological target: T4, huCD137-His (human CD137 with a C-terminal polyhistidine tag) (human, UniProt Q07011 24-186); experiment: dual-binding ELISA, huCD137-His coated, binder titrated, detection with biotinylated huPD-L1-His
# T4 construct: Bought; also called huCD137-His-Bio
# [6] = biological target: T2, huPD-L1-His (human PD-L1 with a …); experiment: SPR (Biacore), binder captured by anti-human IgG Fc, huPD-L1-His in solution, 25 C, 1:1 model
# Protocol: The binding kinetics and affinity of exemplary fusion proteins to huPD-L1-His or huCD137-His (human PD-L1 or human CD137 with a C-terminal polyhistidine tag, R&D Systems) were determined by surface plasmon resonance (SPR) using a Biacore 8K or a Biacore T200 (GE Healthcare).
# The anti-human IgG Fc antibody (GE Healthcare) was immobilized on a CM5 sensor chip using standard amine chemistry: the carboxyl groups on the chip were activated using 1-ethyl-3-(3-dimethylaminopropyl)-carbodiimide (EDC) and N-hydroxysuccinimide (NHS). Subsequently, anti-human IgG Fc antibody solution (GE Healthcare) at a concentration of 25 μg/mL in 10 mM sodium acetate (pH 5.0) was applied at a flow rate of 5 μL/min until an immobilization level of 6000-10000 resonance units (RU) was achieved. Residual non-reacted NHS-esters were blocked by passing a solution of 1M ethanolamine across the surface. The reference channel was treated in an analogous manner. […] After each capture step, the needle was washed.
# Double referencing was used and the 1:1 binding model was used to fit the raw data.
# [7] = biological target: T5, huPD-L1-Fc (recombinant human PD-L1 Fc fusion) (human, UniProt Q9NZQ7 19-239); experiment: competitive ELISA, huPD-1-His coated, 15 nM huPD-L1-Fc tracer, binder titrated
# T5 construct: Bought; also called tracer huPD-L1-Fc
# Protocol: Recombinant huPD-1-His (Acrobiosystems) in PBS (1 μg/mL) was coated overnight on microtiter plates at 4° C. The plates were washed five times after each incubation step with 100 μL PBS-0.05% T (PBS supplemented with 0.05% (v/v) Tween 20). The plates were blocked with 2% BSA (w/v) in PBS-0.1% T (PBS supplemented with 0.1% (v/v) Tween 20) for 1 h at room temperature and subsequently washed again. […] The mixtures of fusion proteins and the tracer were added to the plates and incubated for 20 min at room temperature following by five washing steps with 100 μL PBS-0.05% T. Subsequently, a 1:5000 dilution of goat-anti human IgG-Fc HRP (Jackson) was added to the wells and incubated for 1 h. After an additional wash step, fluorogenic HRP substrate (QuantaBlu, Thermo) was added to each well, and the fluorescence intensity was detected using a fluorescence microplate reader.
# [8] = biological target: human CD137 expressed on cells (human, UniProt Q07011 24-255); experiment: cell-based or functional assay
binder,measurement,setting,value
B1,EC50,[1],3.64 nM
same,EC50,[2],5.9 nM
same,EC50,[3],0.15 nM
same,IC50,[4],1.1 nM
same,EC50,[5],2.9 nM
same,Kd,[6],0.592 nM
same,koff,[6],0.000769 s⁻¹
same,kon,[6],1.3e+06 M⁻¹ s⁻¹
same,IC50,[7],2.3 nM
same,"EC50 [nM] With RKO cells (CD137 Bioassay, NFκB-luc2/CD137 Jurkat luminescence)",[8],0.0809 nM
B2,EC50,[1],1.43 nM
same,EC50,[2],13 nM
same,EC50,[3],0.23 nM
same,IC50,[4],0.99 nM
same,EC50,[5],3.3 nM
same,Kd,[6],0.568 nM
same,koff,[6],0.000748 s⁻¹
same,kon,[6],1.32e+06 M⁻¹ s⁻¹
same,IC50,[7],3 nM
same,"EC50 [nM] With RKO cells (CD137 Bioassay, NFκB-luc2/CD137 Jurkat luminescence)",[8],0.0889 nM

# Source: patent publication US20210363257A1 (Pieris, published 2021)
